Measurements taken from article PMC11870023, “A facile assay for zDHHC palmitoyl transferase activation elucidates effects of mutation and modification” (Journal of Lipid Research, 2025).
Numbering of substitutions follows the chain as printed. In names and notes the source's numbering stands.

Experiments:
Test in all cases: auto-S-palmitoylation of HEK293 membranes, SDS-PAGE fluorescence normalised to tag Western blot
[1] = substrate: CC(C)(COP(=O)(O)OP(=O)(O)OC[C@H]1O[C@@H](n2cnc3c(N)ncnc32)[C@H](O)[C@@H]1OP(=O)(O)O)[C@@H](O)C(=O)NCCC(=O)NCCSC(=O)CCCCCCCCCCCCCCCNc1ccc([N+](=O)[O-])c2nonc12; format: cell-based, Homo sapiens; details: pH 7.4, 37 °C, 2 min, labelled compound, covalent thioester at active-site Cys
From the text: auto-S-palmitoylation of HEK293 membranes, SDS-PAGE fluorescence normalised to tag Western blot on human zDHHC14 | A373Y mutation within the N-terminal cytoplasmic tail of zDHHC14 (Fig. 4A) had no effect

[2] = substrate: CC(C)(COP(=O)(O)OP(=O)(O)OC[C@H]1O[C@@H](n2cnc3c(N)ncnc32)[C@H](O)[C@@H]1OP(=O)(O)O)[C@@H](O)C(=O)NCCC(=O)NCCSC(=O)CCCCCCCCCCCCCCCNc1ccc([N+](=O)[O-])c2nonc12; format: cell-based, Homo sapiens; details: pH 7.4, 37 °C, 2 min, labelled compound, covalent thioester at active-site Cys; remark: listed apart in the source
From the text: auto-S-palmitoylation of HEK293 membranes, SDS-PAGE fluorescence normalised to tag Western blot on human zDHHC14 | L215S mutation within the third transmembrane segment of zDHHC14 (Fig. 4A) substantially diminished auto-S-palmitoylation

[3] = substrate: CC(C)(COP(=O)(O)OP(=O)(O)OC[C@H]1O[C@@H](n2cnc3c(N)ncnc32)[C@H](O)[C@@H]1OP(=O)(O)O)[C@@H](O)C(=O)NCCC(=O)NCCSC(=O)CCCCCCCCCCCCCCCNc1ccc([N+](=O)[O-])c2nonc12; format: cell-based, Homo sapiens; details: pH 7.4, 37 °C, labelled compound, covalent thioester at active-site Cys
[4] = substrate: CC(C)(COP(=O)(O)OP(=O)(O)OC[C@H]1O[C@@H](n2cnc3c(N)ncnc32)[C@H](O)[C@@H]1OP(=O)(O)O)[C@@H](O)C(=O)NCCC(=O)NCCSC(=O)CCCCCCCCCCCCCCCNc1ccc([N+](=O)[O-])c2nonc12; format: cell-based, Homo sapiens; details: pH 7.4, 37 °C, 2 min, labelled compound, covalent thioester at active-site Cys; remark: listed apart in the source
From the text: auto-S-palmitoylation of HEK293 membranes, SDS-PAGE fluorescence normalised to tag Western blot on human zDHHC2 | neither S306 F nor M356I mutation of zDHHC2 within the C-terminal cytoplasmic tail

[5] = substrate: CC(C)(COP(=O)(O)OP(=O)(O)OC[C@H]1O[C@@H](n2cnc3c(N)ncnc32)[C@H](O)[C@@H]1OP(=O)(O)O)[C@@H](O)C(=O)NCCC(=O)NCCSC(=O)CCCCCCCCCCCCCCCNc1ccc([N+](=O)[O-])c2nonc12; format: biochemical, Mus musculus; details: pH 7.4, 37 °C, 2 min, labelled compound, covalent thioester at active-site Cys134

B1: human zDHHC14 (Homo sapiens; A373Y) (protein)
chain: MPPGGGGPMKDCEYSQISTHSSSPMESPHKKKKIAARRKWEVFPGRNKFFCNGRIMMARQTGVFYLTLVLILVTSGLFFAFDCPYLAVKITPAIPAVAGILFFFVMGTLLRTSFSDPGVLPRATPDEAADLERQIDIANGTSSGGYRPPPRTKEVIINGQTVKLKYCFTCKIFRPPRASHCSLCDNCVERFDHHCPWVGNCVGKRNYRFFYMFILSLSFLTVFIFAFVITHVILRSQQTGFLNALKDSPASVLEAVVCFFSVWSIVGLSGFHTYLISSNQTTNEDIKGSWSNKRGKENYNPYSYGNIFTNCCVALCGPISPSLIDRRGYIQPDTPQPAAPSNGITMYGATQSQSDMCDQDQCIQSTKFVLQAYATPLLQSEPSLTSDELHLPGKPGLGTPCASLTLGPPTPPASMPNLAEATLADVMPRKDEHMGHQFLTPDEAPSPPRLLAAGSPLAHSRTMHVLGLASQDSLHEDSVRGLVKLSSV
notes: full length, His6-Myc tag kept (pCEpuro-His6-Myc-1), HEK293 membrane fraction
Km [1]: 1.72 ± 0.50 µM

B2: human zDHHC14 (Homo sapiens; L215S) (protein)
chain: B1 chain with L215S, Y373A
notes: as for B1
Km [2]: 4.46 ± 2.66 µM

B3: human zDHHC4 (Homo sapiens) (protein)
chain: MDFLVLFLFYLASVLMGLVLICVCSKTHSLKGLARGGAQIFSCIIPECLQRAVHGLLHYLFHTRNHTFIVLHLVLQGMVYTEYTWEVFGYCQELELSLHYLLLPYLLLGVNLFFFTLTCGTNPGIITKANELLFLHVYEFDEVMFPKNVRCSTCDLRKPARSKHCSVCNWCVHRFDHHCVWVNNCIGAWNIRYFLIYVLTLTASAATVAIVSTTFLVHLVVMSDLYQETYIDDLGHLHVMDTVFLIQYLFLTFPRIVFMLGFVVVLSFLLGGYLLFVLYLAATNQTTNEWYRGDWAWCQRCPLVAWPPSAEPQVHRNIHSHGLRSNLQEIFLPAFPCHERKKQE
notes: as for B1
Km ([3]; 5 min): 9.68 ± 2.34 µM

B4: human zDHHC2 (Homo sapiens; S306F) (protein)
chain: MAPSGPGSSARRRCRRVLYWIPVVFITLLLGWSYYAYAIQLCIVSMENTGEQVVCLMAYHLLFAMFVWSYWKTIFTLPMNPSKEFHLSYAEKDLLEREPRGEAHQEVLRRAAKDLPIYTRTMSGAIRYCDRCQLIKPDRCHHCSVCDKCILKMDHHCPWVNNCVGFSNYKFFLLFLAYSLLYCLFIAATDLQYFIKFWTNGLPDTQAKFHIMFLFFAAAMFSVSLSSLFGYHCWLVSKNKSTLEAFRSPVFRHGTDKNGFSLGFSKNMRQVFGDEKKYWLLPIFSSLGDGCSFPTCLVNQDPEQAFTPAGLNSTAKNLENHQFPAKPLRESQSHLLTDSQSWTESSINPGKCKAGMSNPALTMENET
notes: as for B1
Km [4]: 3.36 ± 0.73 µM

B5: human zDHHC2 (Homo sapiens) (protein)
chain: B4 chain with F306S
notes: as for B1
Km ([3]; 2 min): 4.46 ± 0.49 µM

B6: human zDHHC2 (Homo sapiens; M356I) (protein)
chain: B4 chain with F306S, M356I
notes: as for B1
Km [4]: 4.59 ± 0.89 µM

B7: HA-tagged mouse zDHHC5 (Mus musculus) (protein)
chain: MPAESGKRFKPSKYVPVSAAAIFLVGATTLFFAFTCPGLSLNVSPAVPIYNAIMFLFVLANFSMATFMDPGIFPRAEEDEDKEDDFRAPLYKTVEIKGIQVRMKWCATCRFYRPPRCSHCSVCDNCVEEFDHHCPWVNNCIGRRNYRYFFLFLLSLTAHIMGVFGFGLLYVLYHIEELSGVRTAVTMAVMCVAGLFFIPVAGLTGFHVVLVARGRTTNEQVTGKFRGGVNPFTNGCCNNVSRVLCSSPAPRYLGRPKKEKTIVIRPPFLRPEVSDGQITVKIMDNGIQGELRRTKSKGSLEITESQSADAEPPPPPKPDLSRYTGLRTHLSLATNEDSSLLGKDSPPTPTMYKYRPGYSSSSTSAAMPHSSSAKLSRGDSLKEPTSIADSSRHPSYRSEPSLEPESFRSPTFGKSFHFDPLSSGSRSSSLKSAQGTGFELGQLQSIRSEGTTSTSYKSLANQTRNGSLSYDSLLTPSDSPDFESVQAGPEPDPPLGYTSPFLSARLAQQREAERHPRLLPTGPPHREPSPVRYDNLSRHIVASLQEREKLLRQSPPLAGREEEPGLGDSGIQSTPGSGHAPRTSSSSDDSKRSPLSKTPLGRPAVPRFGKPDGLRSRGLGSPEPGTTAPYLGRSISYSSQKAPSGVSETEEVALQPLLTPKDEVQLKTTYSKSNGQPKSIGSASPGPGQPPLSSPTRGGVKKVSGVGGTTYEISV
notes: full length, HA tag kept (pEF-Bos-HA), overexpressed in HEK293 cells, native membrane fraction; 78 kDa band
Km [5]: 3.59 ± 0.29 µM

B8: HA-tagged mouse zDHHC5 (Mus musculus; C236S/C237S/C245S) (protein)
chain: B7 chain with C236S, C237S, C245S
notes: as for B7
Km [5]: 17.95 ± 11.12 µM
